For 15 molecules, normalised SPOT signal, Boehringer light units (BLU); mean over the file's lines of this peptide results are on record in paper PMC314469, “Protein Interaction Networks by Proteome Peptide Scanning” (PLoS Biology, 2004).

Holding throughout (assay): SPOT array
Assay [1] deals with T1, Rvs167 SH3 (RV167_YEAST), P39743.
T1 chain: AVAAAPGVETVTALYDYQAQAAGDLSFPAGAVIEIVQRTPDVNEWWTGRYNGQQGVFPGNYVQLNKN

Assay [2] addresses T2, Boi1 SH3 (BOI1_YEAST), P38041.
T2 chain: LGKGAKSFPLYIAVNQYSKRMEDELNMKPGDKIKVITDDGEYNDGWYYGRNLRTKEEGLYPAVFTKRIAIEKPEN

In assay [3] the target is T3, Yhr016c SH3 (YSC84_YEAST), P32793.
T3 chain: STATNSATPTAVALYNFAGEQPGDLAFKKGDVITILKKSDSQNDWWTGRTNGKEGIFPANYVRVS

In assay [4] the target is T4, Yfr024 SH3 (LSB3_YEAST), P43603.
T4 chain: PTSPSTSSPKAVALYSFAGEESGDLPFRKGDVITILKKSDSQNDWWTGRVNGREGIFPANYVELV

For assay [5], the target named is T5, Boi2 SH3 (BOI2_YEAST), P39969.
T5 chain: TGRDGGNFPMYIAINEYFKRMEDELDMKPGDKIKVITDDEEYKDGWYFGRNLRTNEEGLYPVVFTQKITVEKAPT

B1: YDL146W 477-490 (peptide)
chain: PPPPPPPSRKSGTP
B1: the normalised SPOT signal, Boehringer light units (BLU); mean over the file's lines of this peptide in assay [1] came out at 1520; in assay [2], 563; in assay [3], 2480; in assay [4], 6880; in assay [5] it was 50.2.

B2: YNL152W 329-342 (peptide)
chain: PPLPPIPTRDDMSN
As for B2, the normalised SPOT signal, Boehringer light units (BLU); mean over the file's lines of this peptide in assay [1] is 124; in assay [2], 72.7; in assay [3], 545; in assay [4] it was 2050; in assay [5], 37.5.

B3: YER132C 943-956 (peptide)
chain: PPVPKAPSRRSSSL
In the case of B3, the normalised SPOT signal, Boehringer light units (BLU); mean over the file's lines of this peptide in assay [1] is 1660; in assay [2], 1230; in assay [3] it was 6150; in assay [4], 29400; in assay [5], 753.

B4: YIL112W 218-231 (peptide)
chain: PTAPNSPIKLGRRK
In the case of B4, the normalised SPOT signal, Boehringer light units (BLU); mean over the file's lines of this peptide in assay [1] came to 11.6; in assay [2], 135; in assay [3], 175; in assay [4], 547; in assay [5] it was 68.2.

B5: YPR171W 305-318 (peptide)
chain: PTPPSPPAKRIPRS
B5: the normalised SPOT signal, Boehringer light units (BLU); mean over the file's lines of this peptide in assay [1] was 59.3; in assay [2], 347; in assay [3], 0; in assay [4], 8640; in assay [5] it was 134.

B6: YBR060C 169-182 (peptide)
chain: PPEPATPSKKSLTT
Take B6: the normalised SPOT signal, Boehringer light units (BLU); mean over the file's lines of this peptide came to 23.8 in assay [1]; 46.1 in assay [2]; 66.6 in assay [3]; 41.3 in assay [4]; 26.2 in assay [5].

B7: YNL315C 113-126 (peptide)
chain: PSAPKVPFKTLDSF
For the molecule B7, the normalised SPOT signal, Boehringer light units (BLU); mean over the file's lines of this peptide is 37 in assay [1]; 75.4 in assay [2]; 176 in assay [3]; 284 in assay [4]; 43 in assay [5].

B8: YJR126C 341-354 (peptide)
chain: PTTPGYPSKDSDTE
Turning to B8, the normalised SPOT signal, Boehringer light units (BLU); mean over the file's lines of this peptide in assay [1] amounted to 45.8; in assay [2], 40.3; in assay [3] it was 25; in assay [4] it was 139; in assay [5] it was 27.1.

B9: YPR107C 47-60 (peptide)
chain: PRGPLSPKKHVLPI
Take B9: the normalised SPOT signal, Boehringer light units (BLU); mean over the file's lines of this peptide in assay [1] was determined as 29.4; in assay [2] it was 110; in assay [3], 204; in assay [4] it was 289; in assay [5] it was 1.8.

B10: YPL084W 769-782 (peptide)
chain: PQGPGIPPRTYEAS
For the molecule B10, the normalised SPOT signal, Boehringer light units (BLU); mean over the file's lines of this peptide in assay [1] is 332; in assay [2] it was 87.2; in assay [3] it was 1710; in assay [4], 2650; in assay [5], 59.6.

B11: YNL271C 1244-1257 (peptide)
chain: PPPPPVPAKLFGES
B11: the normalised SPOT signal, Boehringer light units (BLU); mean over the file's lines of this peptide stood at 40.5 in assay [1]; 82.1 in assay [2]; 62.5 in assay [3]; 2930 in assay [4]; 37.8 in assay [5].

B12: YMR089C 156-169 (peptide)
chain: PPPPPPPPKPPLND
For B12, the normalised SPOT signal, Boehringer light units (BLU); mean over the file's lines of this peptide in assay [1] is 36.6; in assay [2] it was 60; in assay [3], 100; in assay [4], 1030; in assay [5], 58.

B13: YGL197W 345-358 (peptide)
chain: PSNPALPKKLLNVP
Turning to B13, the normalised SPOT signal, Boehringer light units (BLU); mean over the file's lines of this peptide in assay [1] stood at 27.9; in assay [2] it was 28.7; in assay [3] it was 87.4; in assay [4] it was 1030; in assay [5] it was 78.6.

B14: YKL101W 622-635 (peptide)
chain: PQLPKSPSRYSLSR
Turning to B14, the normalised SPOT signal, Boehringer light units (BLU); mean over the file's lines of this peptide in assay [1] is 391; in assay [2], 14300; in assay [3], 391; in assay [4], 1610; in assay [5], 775.

B15: YNL068C 402-415 (peptide)
chain: PRRPNEPGKGMKWR
As for B15, the normalised SPOT signal, Boehringer light units (BLU); mean over the file's lines of this peptide was determined as 18.5 in assay [1]; 91 in assay [2]; 181 in assay [3]; 218 in assay [4]; 49 in assay [5].
